In patent US20040208887A1 (MOLECULES OF MAN, published 2004):

B1: Fab clone 1:4 (Fab, V domains shown)
VH: EVQLLESGPGLVKPSETLSLTCTVSNGSMSNYCWSWIRQSPGKGLEWIGYIYYSGSTSYNPSLRSRVALLVDTSKNQFSLKLTSVTTADTAVYYCARDLSARGGTRNRDALDVWGQGTQVTVSA
VL: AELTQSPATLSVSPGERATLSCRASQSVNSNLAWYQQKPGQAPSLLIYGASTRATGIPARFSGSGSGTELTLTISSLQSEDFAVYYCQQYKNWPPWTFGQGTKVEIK
notes: Human Fab (gamma1 Fd + kappa), crude periplasmic preparation, approx. 0.01 ug Fab/ml
B2: Fab clone 2a-32 (Fab, V domains shown)
VH: VQLLEQSGGDLVKPGGSLRLSCAASGFTFTDYYMNWIRQAPGKGLEWIAYISIGSDDTKYAASVKGRFSISRDNAKNSLYLQMNSLRVEDTAVYYCGRGGGYCSGGNCYSSDYWGQGALVTVSS
VL: AELTQSPSSLSAFTGDRVSITCRASQGIGNSLAWYQQKPGHVPKVLIYDASTLSSGAPSRFSGSGSGTDFTLTISGLQPEDVATYYCQKYKSAPLTFGGGTKVEIR
notes: Human Fab (gamma1 Fd + kappa), crude periplasmic preparation, approx. >1 ug Fab/ml
B3: Fab clone 2a-30 (Fab, V domains shown)
VH: VQLLEQSGGGLVQPGGSLRLSCTASGFTLTDYSMDWVRQAPGKGPEWVGRSRNKANIYTTEYAASVKGRFVISRDDSENSVYLQMNNVKMDDTAVYYCARGEGIFYGSGSLDLWGQGAVVTVSS
VL: AELTQSPSSLSASVGDRVTITCRSSQSISNSLHWFQQEPGKAPKLLIYAASTLQSGVPSRFSGSGSGTDFTLIITGLQPEDFATYYCQQSPRTPLTFGGGTKVEIR
notes: Human Fab (gamma1 Fd + kappa), crude periplasmic preparation, approx. 0.96 ug Fab/ml
B4: Fab clone 2b-10 (Fab, V domains shown)
VH: EVQLLESGGGVVQPGRSLKLSCTASTFTFTNYAMHWVRQAPGKGLEWVALISNDGSKTYYTDSVRGRFTISRDNSKNTLFLQMNSLRTEDTAVYHCARVKLQGSFNVYYYYGLDVWGQGTTVTVSS
VL: AELTQSPLSLPVTPGEPASISCRSSQSLLHSDGYNYFDWYLQKPGQSPQLLIYLGSNRASGVPDRFSGSGSDTDFTLKISRVEAEDVGVYYCMQTLQTLTFGGGTKLEIK
notes: Human Fab (gamma1 Fd + kappa), crude periplasmic preparation, approx. >1.0 ug Fab/ml
B5: Fab clone 2b-4 (Fab, V domains shown)
VH: EVQLLESGGEVKKPGSSVKVSCKASGGPFSSYAIHWVRQAPGQGLEWMGAIIPFLGRAKYAQKFEGRVTITADGSMSTAYMEVSSLRSDDTAMYYCARDRGELLLRMDVWGQGTAVTVSS
VL: AELTQSPAFMSATPGDKVNISCKASQDIDDDMNWYQQKPGEAAIFIIQEATTLVPGIPPRFSGSGYGTDFTLTINNIESEDAAYYFCLQHDNFPLTFGQGTKVEIK
notes: Human Fab (gamma1 Fd + kappa), crude periplasmic preparation, approx. 0.68 ug Fab/ml
B6: Fab clone 2b-7 (Fab, V domains shown)
VH: VQLLEQSGAEVKKPGESLKISCRASGYSFSLFWVAWVRQMPGQGLEWMAIIYPGDSDTTYSPSFEGQVNVSVDKPISTAYLQWSSLKASDTAMYYCARRRSSDRRDAFDIWGPGTMVTVSS
VL: B5 VL
notes: Human Fab (gamma1 Fd + kappa), crude periplasmic preparation, approx. 0.54 ug Fab/ml
B7: Fab clone 2a-33 (Fab, V domains shown)
VH: VQLLEQSGGGLVQPGRSLRLSCAASGFTFDDYAMHWVRQTPGKGLEWVSGIGWNSGTIEYADSVKGRFTISRDNAKNSLYLQMNSLRPEDTALYYCAKDLHSFGYCSGRSCYFHPFDYWGQGTLVTVSS
VL: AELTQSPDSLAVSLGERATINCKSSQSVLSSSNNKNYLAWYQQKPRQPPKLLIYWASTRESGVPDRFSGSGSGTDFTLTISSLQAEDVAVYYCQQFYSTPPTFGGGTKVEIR
notes: as for B2
B8: Fab clone 2b-1 (Fab, V domains shown)
VH: EVQLLESGPRLVKPSQTLSLTCTVSGDSLNNASHYWAWIRQPAGKGLEWIGRIHRGGSTNYNPSLQSRVTISMDESKNQFSLRLNSVTAADTAVYYCARDPPKAWGPGILVTVSS
VL: AELTQSPSSLSASVGDRVTIACRASQSISNHLNWYQQKPGKAPKVLIYAASSLQSGVPSRFSGSGSGTDFTLTISSLQPEDFAIYYCQQSYSNADFGPGTKVDIK
notes: Human Fab (gamma1 Fd + kappa), crude periplasmic preparation, approx. 0.94 ug Fab/ml
B9: Fab clone 2b-3 (Fab, V domains shown)
VH: EVQLLESGAEVKKPGASVTVSCKASGYSFSDYYIHWVRQAPGQGLEWMGIINPSAGTTTYKQKFQHRVTLTRDTSTNTAYMKLYNLTPDDTAIFFCARGSGGSRSEYDYWGQGTLVTVSS
VL: AELTQSPSSLSASVGDGVTITCRASQSISTYLNWYQQKPGKAPKLLMYAASTLQSGVPSRFSGSGSGTDFTLTISSLQPEDFAAYYCQQARSFPYTFGQGTRLEIR
notes: Human Fab (gamma1 Fd + kappa), crude periplasmic preparation, approx. 1.0 ug Fab/ml
B10: Fab clone 2b-5 (Fab, V domains shown)
VH: EVQLLESGGGVVQPGRSLRLSCAASGFTLSTYAMHWVRQAPGRGLEWVAVISYDGDHKFYADSMKGRFAISRDTSTNTLYLEVNSLKIEDTAVYYCARDRDRRGGYVFSTTGGLDSWGQGTLVTVSS
VL: AELTQSPLSLAVTPGEPASISCRTSQSLLHSNGYTYLDWYLQKPGQSPQLLIYLASNRASGVPDRFSGSGSGTDFTLEISRVEAEDVGVYYCMQPLQTPVTFGQGTKVEVK
notes: as for B4
B11: Fab clone 2a-37 (Fab, V domains shown)
VH: EVQLLESGGGLVQPGRSLRLSCAASGFTFSNSDMHWVRQAPGKGLEWVTVSSRDGYDNYYADSVRGRFTISRDNSKNTLYLQMNTLRAEDTAVYYCAKRRGYAFDIWGQGTMVTVSS
VL: AELTQSPSSLSASVGDRVTITCRASQSINTYLNWYQQKPGKAPELLIYGASSLQSGVPSRFSGSGSGTDFTLTITSLQAEDFASYFCQQSDSTPRTFGQGTKVEIK
notes: Human Fab (gamma1 Fd + kappa), crude periplasmic preparation, approx. 0.08 ug Fab/ml

Biological target: T1, recombinant E1/E2 heterodimer protein (genotype 1a) (hepatitis C virus genotype 1a, UniProt P26664 192-383; P26664 384-746, limits assumed)
T1 construct: also called E1/E2 in complex; recombinant E1/E2 antigen
T1 sequence (P26664 192-383 limits assumed, chain 1 of 2): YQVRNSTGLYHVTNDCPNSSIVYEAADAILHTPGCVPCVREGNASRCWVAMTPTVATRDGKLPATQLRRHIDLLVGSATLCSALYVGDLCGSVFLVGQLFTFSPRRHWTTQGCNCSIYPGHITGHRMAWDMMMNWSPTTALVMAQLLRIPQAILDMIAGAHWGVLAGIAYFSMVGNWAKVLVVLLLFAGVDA
T1 sequence (P26664 384-746 limits assumed, chain 2 of 2): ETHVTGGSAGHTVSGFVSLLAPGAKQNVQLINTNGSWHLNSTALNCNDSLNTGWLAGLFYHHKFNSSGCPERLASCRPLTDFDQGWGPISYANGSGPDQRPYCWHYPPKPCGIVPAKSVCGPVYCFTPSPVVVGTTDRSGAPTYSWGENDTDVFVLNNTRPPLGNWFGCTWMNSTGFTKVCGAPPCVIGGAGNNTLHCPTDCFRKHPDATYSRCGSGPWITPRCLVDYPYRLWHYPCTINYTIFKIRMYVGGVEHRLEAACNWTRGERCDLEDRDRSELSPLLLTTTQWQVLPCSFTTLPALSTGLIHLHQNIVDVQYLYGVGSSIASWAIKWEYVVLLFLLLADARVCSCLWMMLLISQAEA
Experiment: ELISA, E1/E2 heterodimer coated; crude periplasmic Fab

Binder | OD405 nm [OD405 nm]
B1 | 0.67
B2 | 0.09
B3 | 0.52
B4 | 0.11
B5 | 0.09
B6 | 0.32
B7 | 0.14
B8 | 0.12
B9 | 0.19
B10 | 1.4
B11 | 0.48

Biological target: T2, recombinant soluble HCV E1 protein (hepatitis C virus)
T2 construct: It is not the cell-surface E1-myc construct (aa 174-359 of H77c) that was used for phage selection; also called recombinant E1; soluble E1 protein
Experiment: ELISA, recombinant E1 captured on GNA lectin; crude periplasmic Fab

Binder | OD405 nm [OD405 nm]
B1 | 0.78
B2 | 0.61
B3 | 1.11
B4 | 0.48
B5 | 0.11
B6 | 0.47
B7 | 0.65
B8 | 0.35
B9 | 1.18
B10 | 2.21
B11 | 0.99
